Laboratory results: patent US20170319675A1 (IMMATICS BIOTECHNOLOGIES, published 2017)

Target: T1, HLA-A*0201 (human)
T1 construct: also called peptide-receptive MHC molecules; MHC class I
Assay: UV-ligand exchange; anti-b2m ELISA
Excerpt: Candidate peptides for the vaccines according to the present invention were further tested for immunogenicity by in vitro priming assays. The individual peptide-MHC complexes required for these assays were produced by UV-ligand exchange, where a UV-sensitive peptide is cleaved upon UV-irradiation, and exchanged with the peptide of interest as analyzed. Only peptide candidates that can effectively bind and stabilize the peptide-receptive MHC molecules prevent dissociation of the MHC complexes. To determine the yield of the exchange reaction, an ELISA was performed based on the detection of the light chain (β2m) of stabilized MHC complexes.
Peptide-MHC monomers of the UV-exchange reaction were diluted 100 fold in blocking buffer. Samples were incubated for 1 h at 37° C., washed four times, incubated with 2 μg/ml HRP conjugated anti-β2m for 1 h at 37° C., washed again and detected with TMB solution that is stopped with […]. Absorption was measured at 450 nm.

RLLAAENFL [SAMSN1-001]
Average exchange yield in %: 47%
